According to article PMC9926112:

Biological target: GST-fused N-terminal fragment of human β-spectrin (GST-hNβSp) (human) (UniProt P11277)
Assay: SPR; Biacore X100; GST-hNβSp (500 nM) captured on a CM5 chip by anti-GST antibody; h4.1R recombinants (GST cleaved) 150-1000 nM as analyte; PBS, 25 °C; regeneration in 10 mM Glycine-Cl pH 2.1

Chain of UniProt P11277 (P11277 1-527): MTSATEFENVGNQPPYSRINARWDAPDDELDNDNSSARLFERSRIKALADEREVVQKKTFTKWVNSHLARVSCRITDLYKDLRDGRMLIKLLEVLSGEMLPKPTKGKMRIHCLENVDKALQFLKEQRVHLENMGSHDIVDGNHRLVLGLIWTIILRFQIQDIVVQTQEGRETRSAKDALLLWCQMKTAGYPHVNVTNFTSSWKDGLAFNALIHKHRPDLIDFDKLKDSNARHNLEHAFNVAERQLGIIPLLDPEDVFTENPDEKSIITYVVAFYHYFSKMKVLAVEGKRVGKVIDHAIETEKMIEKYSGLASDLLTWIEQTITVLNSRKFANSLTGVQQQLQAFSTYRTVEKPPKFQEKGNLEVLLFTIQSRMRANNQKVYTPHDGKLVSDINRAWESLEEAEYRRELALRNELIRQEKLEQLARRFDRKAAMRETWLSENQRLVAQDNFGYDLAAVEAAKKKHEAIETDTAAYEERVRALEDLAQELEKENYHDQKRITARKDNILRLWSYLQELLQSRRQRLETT

Substance	Kd	kon
human 4.1R with the PE and e14 sequences of alpaca 4.1R (h4.1R[PE14]), cleaved from GST	121 nM	55100 M⁻¹ s⁻¹
human protein 4.1R, wild type (h4.1R WT), cleaved from GST (natural protein)	633 nM	5040 M⁻¹ s⁻¹
